Data set [1] is described as follows: IASyS reversibility of biotin binding of avidin and AVRs. The settings on record: biotin cuvette, after addition of free biotin (0.17 mg/ml). The method, then: The reversibility of biotin binding was studied as follows: Avidin and the AVRs were allowed to bind to a biotin-coated cuvette. After measuring the initial binding (A) as described above, biotin-saturated (0.17 mg/ml) buffer was injected into the cuvette and the amount of proteins remaining bound was measured until no dissociation was seen, again as compared to the negative control cuvette (B). The measurement time was at least 20 minutes. The percent reversibility was calculated as follows: reversibility (%)=100*(A−B)/A. A−B is the amount of liberated proteins after biotin adding.

The nature of data set [2]: Isoelectric focusing. In kind it is physicochemical. As to the method:
The heat stability of the AVRs was studied by using an SDS-PAGE-based method (Bayer, E. A., Ehrlich-Rogozinski, S. and Wilchek, M. (1996) Electrophoresis 17, 1319-1324). In this method, each protein sample was divided into two fractions one of which was kept biotin-free and the other was supplemented with an excess of biotin. The samples were then mixed with denaturing SDS-PAGE sample buffer (containing β-mercaptoethanol) and incubated at a given temperature for 20 minutes. After heat treatment, the samples were subjected to SDS-PAGE and visualised by staining with Coomassie brilliant blue. The relative proportions of tetrameric and monomeric forms of the AVR proteins (with avidin as the control) were detected. A similar assay, with β-mercaptoethanol omitted from the sample buffer, was performed to examine the presence of intersubunit disulfide-bridges. Sensitivity to proteinase K was studied both in the absence and in the presence of biotin as described (Laitinen, O. H., Airenne, K. J., Marttila, A. T., Kulik, T., Porkka, E., Bayer, E. A., Wilchek, M. and Kulomaa, M. S. (1999) FEBS Lett. 461, 52-8). The isoelectric point of each AVR was determined by isoelectric focusing as previously reported (Marttila, A. T., Airenne, K. J., Laitinen, O. H., Kulik, T., Bayer, E. A., Wilchek, M. and Kulomaa, M. S. (1998) FEBS Lett. 441, 313-317). The glycosylation patterns of the AVR proteins were studied by treating the proteins with Endo Hf and PNGase F glycosidase according to the manufacturer's instructions (New England Biolabs, Mass., USA).

Data set [3] can be described thus: Differential scanning calorimetry of avidin and AVR4/5 forms. In kind it is physicochemical. The method, then:
The thermodynamics of the heat-induced unfolding of the proteins were studied using DSC. The transition midpoint of heat-induced denaturation (Tm) of the avidin and different AVR4/5 forms was studied using a Nano II differential scanning calorimeter (Calorimetric Sciences Corporation, Provo, Utah, USA). The reference cell was filled with buffer whereas the sample cell was filled with proteins dissolved in 50 mM sodium phosphate buffer, pH 7.0 containing 100 mM NaCl. Avidin and AVR4/5(C124S) were also analyzed in 50 mM Na-acetate pH 4.0 containing 100 mM NaCl. Furthermore, AVR4/5 was analyzed in the presence of 2-mercaptoethanol (0.4% v/v). The samples (1.6-9.6 μM) were analyzed both in the absence and presence of a three fold molar excess of biotin/subunit. All samples were degassed before being loaded into the DSC. The thermograms were recorded as a function of temperature; between 25 and 130° C. at a rate of 55.6° C./h (Gonzalez, M., Argarana, C. E. & Fidelio, G. D. (1999) Biomol. Eng. 16, 67-72; Nordlund, H. R., Laitinen, O. H., Uotila, S. T., Nyholm, T., Hytönen, V. P., Slotte, J. P. & Kulomaa, M. S. (2003) J. Biol. Chem. 278, 2479-2483). Data was analyzed using Microcal Origin 6.0 and Cpcalc 2.1 (Applied Thermodynamics, Hunt Valley, Md.). The change in heat capacity upon unfolding (ΔCp) was measured for avidin and AVR4/5(C124S) using DSC data from measurements in pH 4.0 and 7.0. ΔCp was then obtained from the slope of ΔH vs. Tm (Liu, Y. & Sturtevant, J. M. (1996) Biochemistry 35, 3059-3062).

Data set [4] is described as follows: IAsys reversibility of binding to biotin, AVR4/5 forms. As to conditions: biotin cuvette. As to the method: The biotin-binding characteristics of the different avidins were studied using an IAsys optical biosensor at 20° C. […] H., Hytönen, V. P., Ahlroth, M. K., Pentikäinen, O. T., Gallagher, C., Nordlund, H. R., Ovod, V., Marttila, A. T., Porkka, E., Heino, S., Johnson, M. S., Airenne, K. J. & Kulomaa, M. S. (2002) Biochem. J. 363, 609-617).

Data set [5] is described as follows: IAsys optical biosensor, AVR4/5 forms binding to 2-iminobiotin surface. The settings on record: for Kd: 20° C. As to the method: The biotin-binding characteristics of the different avidins were studied using an IAsys optical biosensor at 20° C. The reversibility of binding and binding affinities to the 2-iminobiotin surface in 50 mM borate buffer (pH 9.5, 1 M NaCl) were measured as previously reported (Laitinen, O. H., Hytönen, V. P., Ahlroth, M. K., Pentikäinen, O. T., Gallagher, C., Nordlund, H. R., Ovod, V., Marttila, A. T., Porkka, E., Heino, S., Johnson, M. S., Airenne, K. J. & Kulomaa, M. S. (2002) Biochem. J. 363, 609-617).
Briefly, The 2-iminobiotin ligand was immobilized onto the carboxymethyldextran surface of a cuvette using N-hydroxysuccinimide activation. Binding of various concentrations of avidin or avidin mutants onto 2-iminobiotinylated surface were measured in a 50 mM borate buffer (pH 9.5) containing 1 M NaCl at 20° C. The iminobiotin cuvettes were regenerated with 20 mM HCl. The kinetic rate constants for association (kass) and dissociation (kdiss) were calculated using the Fast Fit program package (Affinity Sensors). The obtained rate constants were used to calculate Kd(rel) according to Kd=kdiss/kass. Equilibrium data obtained from measurements with different protein concentrations were used to calculate the dissociation constant Kd(eq).

By ΔTm is commonly meant the change in melting temperature against a reference sample. The term Kd denotes a measure of binding affinity in units of concentration.

Where two headings read alike, the source gives them in different places.

B1: AVR4/5: Recombinant chicken avidin-related protein 4/5 (AVR4 and AVR5 identical in coding sequence) (protein, UniProt P56734 25-150, looked up)
Avidin-related protein 4/5: ARKCSLTGKWTNNLGSIMTIRAVNSRGEFTGTYLTAVADNPGNITLSPLLGIQHKRASQPTFGFTVHWNFSESTTVFTGQCFIDRNGKEVLKTMWLLRSSVNDISYDWKATRVGYNNFTRLCTVEE
For B1, the “Reversibility of biotin binding” value in data set [1] is recorded as 2 ± 2%. In addition, the “pI by isoelectric focusing” value in data set [2] was “≈ 10”. Also, in data set [3] (50 mM sodium phosphate pH 7.0, 100 mM NaCl), the “DSC Tm(−biotin)” value was 107.4 ± 0.3 °C. In data set [3] (change in Tm upon addition of a three-fold molar excess of biotin), the ΔTm is 17.3 °C. In addition, the ΔH of unfolding in data set [3] (sample without biotin) was determined as 194 ± 33.5 kcal/mol. In data set [3] (three-fold molar excess of biotin, pH 7.0), the “DSC Tm (+biotin)” value was determined as 124.7 ± 0.3 °C. In addition, the “Reversibility of binding to biotin” value in data set [4] turned out to be 5 ± 3%. Further, in data set [5], the kass entry is on record as “(7.0 ± 2.1) × 10^3 M^−1s^−1” and the kdiss result is recorded as “(1.6 ± 1.4) × 10^−3 s^−1”. Besides, the Kd in data set [5] (50 mM borate pH 9.5, 1 M NaCl, read-out: Kd detected from the equilibrium response data) was found to be 160 nM. Also, in data set [5] (pH 9.5, 1 M NaCl, read-out: Kd detected directly from the binding curves), the Kd is 230 nM.

Values taken from US20060281899A1, “Mutants of biotin binding protein” (priority 2002, published 2006).
